Results as given in patent US20240287172A1 (SCIRHOM, published 2024).
Residue numbers refer to the chain shown, from its start.

T1: hiR2-FL-I477M-T7 (human, UniProt Q6PJF5 1-856)
T1 sequence: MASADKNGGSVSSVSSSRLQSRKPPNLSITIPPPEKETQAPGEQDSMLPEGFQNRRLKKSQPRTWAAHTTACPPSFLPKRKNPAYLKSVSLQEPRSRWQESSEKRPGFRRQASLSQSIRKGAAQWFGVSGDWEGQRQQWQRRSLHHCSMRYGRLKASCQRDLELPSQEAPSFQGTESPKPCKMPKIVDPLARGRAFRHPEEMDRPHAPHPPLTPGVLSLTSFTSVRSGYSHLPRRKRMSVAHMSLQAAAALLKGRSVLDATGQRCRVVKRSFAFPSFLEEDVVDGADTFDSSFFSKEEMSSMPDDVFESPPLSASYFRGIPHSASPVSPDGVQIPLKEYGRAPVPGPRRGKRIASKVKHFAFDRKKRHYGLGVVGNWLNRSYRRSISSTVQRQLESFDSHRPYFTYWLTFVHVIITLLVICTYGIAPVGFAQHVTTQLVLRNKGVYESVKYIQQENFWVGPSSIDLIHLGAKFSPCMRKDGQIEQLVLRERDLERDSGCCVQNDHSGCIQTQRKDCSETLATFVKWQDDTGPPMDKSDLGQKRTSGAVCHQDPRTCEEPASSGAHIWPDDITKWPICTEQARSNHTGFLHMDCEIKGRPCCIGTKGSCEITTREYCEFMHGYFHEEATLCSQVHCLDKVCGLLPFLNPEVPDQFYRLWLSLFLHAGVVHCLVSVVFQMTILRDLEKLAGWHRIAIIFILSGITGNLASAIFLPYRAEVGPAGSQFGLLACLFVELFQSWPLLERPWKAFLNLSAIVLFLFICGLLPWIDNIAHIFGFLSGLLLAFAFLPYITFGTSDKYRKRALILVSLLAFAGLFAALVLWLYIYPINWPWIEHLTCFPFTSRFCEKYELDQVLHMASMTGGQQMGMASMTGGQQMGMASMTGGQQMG

T2: hiR2-FL-S537E-T7 (human, UniProt Q6PJF5 1-856)
T2 sequence: T1 sequence with M477I, S537E

B1: antibody 48 (antibody, V domains shown)
VH: QVQLQQSGTELVRPGTSVKVSCKASGYAFTNYLIEWVKQRPGQGLEWIGVINPGSGFTKYNEKFKGKATLTADKSSSTVYMHLSSLTSEDSAVYFCARGLYRAMDYWGQGTSVTVSS
VL: DIQMTQSPASQSASLGESVTITCLASQTIATWLAWYQQKPGKSPQLLIYGATTLADGVPSRFSGGGSGTKFSFKISSLQAEDFVSYYCQQLYSTPYTFGGGTKLEIK
notes: mouse IgG, kappa light chain; also called clone #48; purified antibody 48
B2: antibody 50 (antibody, V domains shown)
VH: B1 VH with T9A, T16A, T30S, V79A, H82Q
VL: B1 VL with A30G, G50A, T52A, T53S, S85N, L91I
notes: mouse IgG, kappa light chain; also called clone #50; purified antibody 50
B3: antibody 34 (antibody, V domains shown)
VH: QVTLKESGPGILQPSQTLSLTCSFSGFSLSTFSLGVGWIRQSSGKGLEWLAHIWWDDEKYYNPALKSRLTISKDTSKNQVFLKIANVDAADTATYYCARAYYSKSYYALDYWGQGTSVTVSS
VL: DIQMTQSPSSLSASLGERVSLTCRASQEISGYLSWLQQKPDGTIKRLIYAASTLDSGVPKRFSGSRSGSDYSLAISSLESEDFADYYCLQYANFPFTFGSGTKLEIK
notes: mouse IgG, kappa light chain; also called clone #34; purified antibody 34
B4: antibody 5 (antibody, V domains shown)
VH: QVTLKESGPGILQPSQTLSLTCSFSGFSLSTFGMGVGWIRQPSGKGLEWLAHIWWDDEKYYNSALKSRLTISKATSKNQAFLKIANVDTADTATYYCARISNYGSNYWYFNVWGTGTTVTVSS
VL: QVVLTQSPALMSASPGEKVTMTCSAGSSVSCMYWYQQKPGSSPRVLIYDTSNLASGVPARFTGSGSGTSYSLTISRMEAEDAASYYCQQWNSYPLTFGAGTKLELK
notes: mouse IgG, kappa light chain; also called clone #5; purified antibody 5

Tests used:
hiR2-FL-I477M-T7 = molecular target: T1, hiR2-FL-I477M-T7; assay: FACS, MEF-DKO cells, 3 µg/ml
Description: In brief, immortalized MEF-DKO-hiR2-FL-A431S-T7, MEF-DKO-hiR2-FL-V434E-T7, MEF-DKO-hiR2-FL-T436V-T7, MEF-DKO-hiR2-FL-Q437D-T7, MEF-DKO-hiR2-FL-L438S-T7, MEF-DKO-hiR2-FL-S448N-T7, MEF-DKO-hiR2-FL-I452V-T7, MEF-DKO-hiR2-FL-I464E-T7, MEF-DKO-hiR2-FL-D465A-T7, MEF-DKO-hiR2-FL-I477M-T7, MEF-DKO-hiR2-FL-K479Q-T7, MEF-DKO-hiR2-FL-G481P-T7, MEF-DKO-hiR2-FL-I483V-T7, MEF-DKO-hiR2-FL-E484H-T7, MEF-DKO-hiR2-FL-Q485S-T7, MEF-DKO-hiR2-FL-L486F-T7, MEF-DKO-hiR2-FL-V487I-T7, MEF-DKO-hiR2-FL-R489S-T7, MEF-DKO-hiR2-FL-E490A-T7, MEF-DKO-hiR2-FL-D492E-T7, MEF-DKO-hiR2-FL-L493R-T7, MEF-DKO-hiR2-FL-R495K-T7 and MEF-DKO-hiR2-FL-D496H-T7 cells were harvested with 10 mM EDTA in PBS, washed and resuspended in FACS buffer (PBS, 3% FBS, 0.05% sodium azide), and seeded in Nunc U-bottom 96-well plates (Thermo Fisher Scientific, USA) at approximately 1×10⁵ cells per well. To pellet cells and remove supernatants, the plates were centrifuged at 1,500 rpm and 4° C. for 3 minutes. For primary staining, cells were resuspended in 100 μl per well of either FACS buffer alone (controls) or the purified antibodies 3, 5, 16, 22, 34, 42, 43, 44, 48, and 50 of the invention at 3 μg/ml in FACS buffer and incubated on ice for 1 hour. Afterwards, plates were centrifuged at 1,500 rpm and 4° C. for 3 minutes and washed twice with 200 μl per well of FACS buffer. For secondary staining, cells were spun down and resuspended in 100 μl per well of PE-conjugated goat anti-mouse IgG F(ab′)2 detection fragment (Dianova, Germany) diluted 1:100 in FACS buffer. Protected from light, the cell suspensions were incubated on ice for 1 hour. Plates were then centrifuged at 1,500 rpm and 4° C. for 3 minutes and washed three times with 200 μl per well of FACS buffer. Finally, cells were resuspended in 150 μl per well of FACS buffer and analyzed using a BD Accuri™ C6 Plus flow cytometer (Becton Dickinson, Germany).

hiR2-FL-S537E-T7 = molecular target: T2, hiR2-FL-S537E-T7; assay: FACS on MEF-DKO cells

Row | Binder | loss of binding vs wild type (hiR2-FL-I477M-T7) [%] | binding result (hiR2-FL-S537E-T7)
1 | B1 | ≥ 30 | 
2 | B2 | ≥ 30 | 
3 | B3 |  | no binding (tested: 3 µg/ml)
4 | B4 |  | no binding (tested: 3 µg/ml)
